Kd data for 1 substance are collected here from publication PMC12748981.

The target of this assay is GST-NUPR1 (UniProt O60356). Put plainly: SPR. The conditions noted are these: VHH.

pKd: −log10 of the molar value.

UniProt O60356, sequence (O60356 whole entry): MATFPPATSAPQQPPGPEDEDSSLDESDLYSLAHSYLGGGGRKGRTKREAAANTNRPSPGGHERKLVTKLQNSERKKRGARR

The pKd is the negative decadic logarithm of the Kd, by convention in mol/L. Low readings indicate a large Kd, high ones a small Kd. “sdAb#07.81-3xFlag-cOdc1-Tat-6xHis (from UniProt P00860)” showed a pKd of 6.51.
